The record followed here is US6180362A, “Peptides which inhibit ras protein activity, their preparation and use” (Rhone-Poulenc Rorer S.A., priority 1992, dated 2001).

Assay [1] deals with NIH 3T3 cells cotransfected with oncogenic Ha-ras Val12. Briefly: Formation of foci of transformed cells. As to conditions: foci formation test, result in words. Format: cell-based. The protocol: The activity of P9 was then evaluated in a test for formation of foci of transformed cells. The cancerous cells in fact have the property of forming transformation foci, and in particular fibroblasts NIH 3T3 expressing an oncogenic ras. The cells NIH 3T3 were cultured in DMEM medium (Dulbecco's modified Eagle medium) comprising 10% of foetal calf serum at 37° C. in a humid environment containing 5% of CO2. The plasmids pSV2-GAP and pSV2-P9 were constructed by inserting the nucleotide sequences coding for GAP and for P9 (SEQ ID No. 4) into the vector SV2. The cells NIH 3T3 were cotransfected with an oncogenic ras Ha-ras Va112, the plasmide indicated in the table, and a 10-fold excess of the gene having resistance to neomycin by the technique of transfection with cationic lipids (Schweighoffer et al., Science 256 (1992) 825). The same amount of total DNA is transfected for each dish. 24 hours after transfection, the transfected cells originating from each Petri dish (100 mm) are divided in a ratio of 1 to 10 and cultured in the same medium but in the presence of G418 (Gibco/BRL) in an amount of 0.4 mg/ml of medium. The number of transformation foci obtained per μg of transfected DNA is compatibilized after culture for 14 days. They represent the mean of four independent tests.

The test system of assay [2] is maturation of Xenopus eggs induced by p21 ras Lys12. The assay is described as follows: Maturation of Xenopus eggs (oocytes) induced by ras, % GVBD. The following applies: microinjection into oocyte cytoplasm together with ras p21 protein; GVBD after 18 hours. Format: cell-based, Xenopus laevis. The protocol: Xenopus laevis frogs were obtained from CNRS (Montpellier, France). The frogs are anaesthetized in ice-water and fragments of the ovaries are removed surgically and transferred to a modified Barth medium (Hirai et al., Dev. Biol. 100 (1984) 214). The stage VI oocytes are recovered by agitating the oocyte aggregates for 2 hours at ambient temperature in the presence of 2 mg/ml of collagenase (Sigma). For analysis of the maturation induced by ras, 40 nl of the protein in modified Barth medium are introduced into the cytoplasm of the oocytes by microinjection, either alone or in the presence of various concentrations of anti-GAP antibodies. For analysis of the maturation induced by hormones, the oocytes are incubated in the presence of insulin (10 μg/ml) and zinc chloride (10 μM) (bovine pancreatic insulin, Sigma) or progesterone (1 μM). The oocytes are kept at 20° C. in modified Barth medium, and the […] germinal vesicle breakdown (GVBD) is determined after incubation for 18 hours by dissection of the oocytes, which have been fixed beforehand in the presence of 5% of trichloroacetic acid. The results are expressed by the % GVBD on groups of oocytes.
E.3.1. The biological activity of the peptides according to the invention was studied by measuring their effect on the maturation of Xenopus eggs induced by p21 ras Lys12, by insulin or by progesterone.
The protocol used is the same as that described in Example E.1.1. above. The activity is measured by microinjection into the cytoplasm of the oocytes of 40 nl of the ras p21 protein in modified Barth medium, either alone or in the presence of various peptides according to the invention in varying concentrations. The results are expressed by the % of GVBD over the groups of oocytes. The results are shown on FIG. 3.

Assay [3] addresses T1, GAP-p21 interaction (Ha-ras p21-GTP and GAP) (Homo sapiens, UniProt P20936).
T1 construct: GST (glutathione S-transferase) (N); made in house; host or cells: E. coli (crude cytosol for GAP)
T1 sequence (P20936 1-1047): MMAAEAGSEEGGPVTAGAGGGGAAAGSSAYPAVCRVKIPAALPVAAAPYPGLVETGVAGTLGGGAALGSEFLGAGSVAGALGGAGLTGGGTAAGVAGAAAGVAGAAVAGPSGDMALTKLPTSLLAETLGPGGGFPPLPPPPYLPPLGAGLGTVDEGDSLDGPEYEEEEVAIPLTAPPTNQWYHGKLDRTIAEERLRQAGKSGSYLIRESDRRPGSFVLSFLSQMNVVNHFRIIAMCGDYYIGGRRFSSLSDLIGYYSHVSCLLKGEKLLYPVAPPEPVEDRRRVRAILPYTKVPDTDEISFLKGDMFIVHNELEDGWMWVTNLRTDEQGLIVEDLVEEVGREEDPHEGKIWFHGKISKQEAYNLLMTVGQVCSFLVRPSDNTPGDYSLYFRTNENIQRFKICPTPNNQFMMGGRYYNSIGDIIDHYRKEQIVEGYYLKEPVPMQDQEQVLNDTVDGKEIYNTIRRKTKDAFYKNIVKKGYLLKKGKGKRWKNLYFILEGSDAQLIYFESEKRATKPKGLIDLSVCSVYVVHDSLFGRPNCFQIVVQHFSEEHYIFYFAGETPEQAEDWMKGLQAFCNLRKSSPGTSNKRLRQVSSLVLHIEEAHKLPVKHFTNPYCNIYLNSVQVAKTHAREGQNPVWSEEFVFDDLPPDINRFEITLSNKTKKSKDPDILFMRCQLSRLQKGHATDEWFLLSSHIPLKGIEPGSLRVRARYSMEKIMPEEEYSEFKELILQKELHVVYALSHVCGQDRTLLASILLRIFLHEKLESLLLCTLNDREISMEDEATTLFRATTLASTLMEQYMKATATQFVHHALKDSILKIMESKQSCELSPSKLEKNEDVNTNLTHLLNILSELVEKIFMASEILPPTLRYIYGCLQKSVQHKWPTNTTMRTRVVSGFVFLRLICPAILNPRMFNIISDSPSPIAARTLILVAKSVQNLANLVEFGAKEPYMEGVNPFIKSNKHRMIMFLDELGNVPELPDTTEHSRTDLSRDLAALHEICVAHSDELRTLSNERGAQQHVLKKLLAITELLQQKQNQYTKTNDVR
The assay is described as follows: GAP-stimulated GTPase reaction of Ha-ras p21-GTP (GAP-p21 interaction). Format: biochemical. Here is the method:
E.1.2. Absence of an effect of the Ac200 antibody on the GAP-p21 interaction The interaction between GAP and the complex p21-GTP is determined in accordance with the following protocol. The normal protein Ha-ras p21 (Rey et al., Mol. Cell. Biol. 9 (1989) 3904) is equilibrated with an excess of (γ-^32 P) GTP (3000 Ci/mmol, Dupont, NEN Research Products, Boston, Mass.) in a buffer of Tris-HCl 20 mM (pH 7.5), 100 mM (NH4)2 SO4, 10 mM dithiothreitol, 1 mM MgCl2 and 50 mg/ml of bovine serum albumin for 30 minutes at 30° C. The incubation is stopped by applying the cooled solution to a PD10 column (Pharmacia) equilibrated by a buffer of Tris-HCl 20 mM (pH 7.5), 10 mM dithiothreitol, 10 mM MgCl2 and 1 mM phenylmethylsulphonyl fluoride, to eliminate the free nucleotides. The GTPase reaction is a variant of that described by Cassel and Selinger (Biochim. Biophys. Acta 452 (1976) 538). The reaction is started by addition of 10 μl (15 μg) of cytosol obtained by sonic treatment of strains of E. coli which express GAP (cf. Example E.2.1. below for the production of GAP) to 1 pmol of Ha-ras p21-(g^-32 P) GTP in the buffer Tris-HCl 20 mM (pH 7.5), NaCl 100 mM, dithiothreitol 10 mM, MgCl2 5 mM, GTP 100 μM and BSA 50 μg/ml, to obtain a final volume of 50 μl. […] After centrifugation at 1800 g, the radioactivity is measured in samples of 200 μl of the supernatant.

B1: P9: Peptide SEQ ID No. 4, purified as GST fusion protein and separated from GST by thrombin cleavage (protein)
chain: GGGFPPLPPPPYLPPLGAGLGTVDEGDSLDGPEYEEEEVAIPLTAPPTNQWYHGKLDRTIAEERLRQAGKSGSYLIRESDRRPGSFVLSFLSQMNVVNHFRIIAMCGDYYIGGRRFSSLSDLIGYYSHVSCLLKGEKLLYPVAPPEPVEDRRRVRAILPYTKVPDTDEISFLKGDMFIVHNELEDGWMWVTNLRTDEQGLIVEDLVEEVGREEDPHEGKIWFHGKISKQEAYNLLMTVGQVCSFLVRPSDNTPGDYSLYFRTNENIQRFKICPTPNNQFMMGGRYYNSIGDIIDHYRKEQIVEGYYLKEPVPMQDQEQVLNDTVDGKEIYNTIRRKTKDAFYKNIVKKGYLLKKGKGKRWKNLYFILEGSDAQLIYFESEKRATKPKGLIDLSVCSVYVVHDSLFGRPNCFQIVVQHFSEEHYIFYFAGETPEQAEDWMKGLQAFCNLRKSSPGTSNKRLRQVSSLVLHIEEAHKLPVKHFTNPYCNIYLNSVQVAKTHAREGQNPVWSEEFVFDD
As for B1, the “Reduction of the transforming power of an oncogenic ras gene” value in assay [1] is “capable of very greatly reducing the transforming power of an oncogenic ras gene”. Besides, the “Inhibition of the transformation activity of the ras protein (maturation of Xenopus eggs, % GVBD)” value in assay [2] is recorded as “completely blocks maturation of ovocytes”.

B2: [275-351] GAP: fragment of the protein GAP holding the effector region, about residues 275 to 350; peptide SEQ ID No. 2 (protein)
chain: APPEPVEDRRRVRAILPYTKVPDTDEISFLKGDMFIVHNELEDGWMWVTNLRTDEQGLIVEDLVEEVGREEDPHEGKI
Turning to B2, in assay [3] (None = 100, GTPase reaction 3 minutes at 30° C., 1 pmol Ha-ras p21-GTP, E. coli cytosol expressing GAP), the “Relative GAP activity” value is listed as 100. In addition, in assay [3] (same GTPase test, result in words), the “Effect on the GAP-p21 interaction” value was “does not modify the functional interaction of GAP-p21”. The “Inhibition of the transformation activity of the ras protein (maturation of Xenopus eggs, % GVBD)” value in assay [2] is “capable of inhibiting the transformation activity of the ras protein”.

B3: [768-860] PLCγ: fragment of identical length prepared by the same techniques from type γ human phospholipase C (protein, UniProt P19174 768-860, looked up, fragment)
chain: EPDYGALYEGRNPGFYVEANPMPTFKCAVKALFDYKAQREDELTFIKSAIIQNVEKQEGGWWRGDYGGKKQLWFPSNYVEEMVNPVALEPERE
Turning to B3, the “Inhibition of the transformation activity of the ras protein (maturation of Xenopus eggs, % GVBD)” value in assay [2] is recorded as “does not have the activity of the peptide according to the invention”.
